Key:
chymotrypsin [1] = assay: In vitro enzyme (chymotrypsin) resistance, IN105 and Zn IN105 complexes; type: in vitro ADME; conditions: 37° C., 0.6 mg/ml protein
Procedure: (§1) This sample serves as T=0. […] The half life was calculated using the equation: t1/2:=−0.693/slope.

chymotrypsin [2] = assay: In vitro enzyme (chymotrypsin) resistance, HIM2 and Zn HIM2 complexes; type: in vitro ADME; conditions: 37° C., 0.3 mg/mL protein
Procedure: as §1

IN105 (R-type zinc complex): R-type Zn complex of IN105, 1.85% w/w zinc, 2.37% w/w phenol (as reaction 9.6.1)
T half (chymotrypsin [1]): 55.3 min

HIM2 (R-type zinc complex): R-type Zn complex of HIM2, 1.1% w/w zinc, 0.1 to 0.25% w/w phenol
T half (chymotrypsin [2]): 19 to 21 min

Source: patent US8563685B2, “Fatty acid formulations and oral delivery of proteins and peptides, and uses thereof” (priority 2004, dated 2013)
